The source of these data is patent publication US20250027068.

B1: PRT-458 (protein)
chain: MVTSVWTKGVTPPTDFIKGEDVFHAPYKAGQGWYDITKTFNGKDDLLCGAATAGNMLHWWFDQNKDQIERYLKEHPEKQKINFNGEQMFDVKEAIDTKDSQTDSKLFEYFKEKAFPYLSTKHLGVFPDHVLDMFINGYRLSLTNHGPTPVKEGSKDPRGGIFDAVFTRGDQSKLLTSRHDFKEKTLKEISDLIKQELTEGKALGLSHTYANVRINHVINLWGADFDSEGNLKAIYVTDSDSNASIGMKKYFVGVNSAGKVAISAKEIKEDNIGAQVLGLFTLSTGQDIWNQTNLEHHHHHH
B2: PRT-670 (protein)
chain: MQITSVWTKGVTPLTPEQFRNNNEDVFHAPYLPNQGWYDITKAFNGKDNLLCGAATAGNMLHWWFDQNKEEIEAYLKKYPEKQKIIFNNQELFDLRKAINTKDSQTNSALFNYFRDKAFPNLSARQLGVMPDHVLDMFINGYYLNVGKTQSTDVNRPYQDKDKRGGIFDHVFNRGDQTKLLTARHDLKNKTLNDISTLIKQELSSGKALALSHTYANVGISHVINLWGADFNAEGNLEAIYVTDSDDRASIGMKKYYVGRNASGHVAISAKKIEGENLGAQVLGLFTLSSGKEIWQKLSLEHHHHHH
B3: PRT-494 (protein)
chain: MVTSVWTKGVTPPTDFIKGEDVFHAPYKAGQGWYDITKTFNGKDDLLCGAATAGNMLHWWFDQNKEYIEAYLKKHPEKQKIMFGDQELLDVRKAINTKGSQKNSELFNYFRDKAFPNLSARRLGVMPDLVLDMFINGYYLNVTKTQTTDVNRTYQEKDKRGGIFDAVFTRGDQSKLLTSRHDFKEKGLKEISDLIKQELTEGKALGLSHTYANVRINHVINLWGADFDSDGNLKAIYVTDSDSNASIGMKKYFVGVNSAGKVAISAKEIKEDNIGAQVLGLFTLSTGQDIWNQTNLEHHHHHH
B4: PRT-468 (protein)
chain: MITSVWTKGVTPPTDFIKGEDVFHAPYKAGQGWYDITKAFDGGDDLLCGAATAGNMLHWWFDQNKDQIERYLKEHPEKQKINFNGEQMFDVKEAIDTKDSQTNSELFNYFKEKAFPYLSTKHLGVFPDHVLDMFINGYRLSLTNHGPTPVKEGSKDPRGGIFDAVFTRGDQSKLLTSRHDLKNKTLNEISQLIKQELTEGKALGLSHTYANVRINHVINLWGADFDAEGNLEAIYVTDSDSNASIGMKKYFVGVNSAGKVAISAKEIKEDNIGAQVLGLFTLSTGQDIWNQTNLEHHHHHH
B5: PRT-502 (protein)
chain: MITSVWTKGVTPPTDFIKGEDVFHAPYKAGQGWYDITKAFDGGDDLLCGAATAGNMLHWWFDQNKEYIEAYLKKHPEKQKIMFGDQELLDVRKAINTKGSQKNSELFNYFRDKAFPNLSARRLGVMPDLVLDMFINGYYLNVTKTQTTDVNRQEQEKDKRGGIFDAVFGRGDQTKLLTSRHDFKEKGLNEISQLIKQELTEGKALGLSHTYANVRINHVINLWGADFDADGNLEAIYVTDSDSNASIGMKKYFVGVNSAGKVAISAKEIKEDNIGAQVLGLFTLSTGQKIWNKTNLEHHHHHH
B6: PRT-618 (protein)
chain: MQITSVWTKGVIPLTPEQFRYNNEDVIHAPYLPHQGWYDITKAFDGGDNLLCGAATAGNMLHWWFDQNKTEIEAYLSKYPEKQKIIFNNQELFDLRAAINTKDSQTNSQLFNYFRDKAFPNLSARQLGVMPDLVLDMFINGYYLNVFKTQSTDVNRPYQDRDKRGGIFDHVFGRGDQTTLLTARHDLKNGGLNDISTIIKQELQSGRALALSHTYANVSISHVINLWGADFNAEGNLEAIYVTDSDANSSIGMKKYYVGINAHGHVAISAKKIEGENIGAQVLGLFTLSSGKEIWQKLSLEHHHHHH
B7: PRT-506 (protein)
chain: MITSVWTKGVTPPTDFIKGEDVFHAPYKAGQGWYDITKTFNGKDDLLCGAATAGNMLHWWFDQNKEEIEAYLKKHPEKQKIMFGDQELLDVRKVINTKDSQTNSALFNYFKDKAFPNLSARRLGVMPDLVLDMFINGYYLNVYKTQTTDVNRTYQTKDRRGGIFDAVFTRGDQSKLLTERHDFKEKTLKEISDLIKQELTEGKALGLSHTYANVRINHVINLWGADFDSNGNLEAIYVTDSDSNASIGMKKYFVGVNSAGKVAISAKEIKEDNIGAQVLGLFTLSTGQDIWNQTNLEHHHHHH
B8: PRT-512 (protein)
chain: MITSVWTKGVTPPAKFTQGEDVFHAPYVANQGWYDITKAFDGGDDLLCGAATAGNMLHWWFDQNKEEIEAYLKKHPEKQKIMFGDQELLDVRKVINTKDSQTNSALFNYFKDKAFPNLSARRLGVMPDLVLDMFINGYYLNVYKTQTTDVNRTYQTKDRRGGIFDAVFTRGDQSKLLTERHDLKNKTLKEISDLIKQELTEGKALGLSHTYANVRINHVINLWGADFDSNGNLEAIYVTDSDSNASIGMKKYFVGVNSAGKVAISAKEIKEDNIGAQVLGLFTLSTGQDIWNQTNLEHHHHHH
B9: PRT-491 (protein)
chain: MVTSVWTKGVTPPTDFIYGEDVLHAPYKAGQGWYDITKTFNGKDNLLCGAATAGNMLHWWFDQNKEQIENYLKKHPEKQKIIFNNQELFDLKAAIDTKDSQLDSKLFEYFKEKAFPYLSTKHLGVFPDHVIDMFINGYRLSLTNHGPTPVKRGSKDKRGGIFDAVFTRGVQSKLLTNRHDLKNKTLKEISDLIKQELTEGKALGISHTYANVRINHVINLWGADFDAEGNLEAIYVTDSDTNASIGMKKYFVGVNSNGKVAISAKEIEEDNIGAQVLGLFTLSTGQDIWNQTNLEHHHHHH

The data set has as its target pooled human IgG (human IgG1,2,3 and 4).
The protein B1 displayed an Enzyme Activity Endpoint Assay: Fab′2 of 598 ng/µL, an Enzyme Activity Endpoint Assay: Fc of 224 ng/µL, an Enzyme Activity Endpoint Assay: IgG of 112 ng/µL and an Enzyme Activity Endpoint Assay: scIgG of 226 ng/µL.

Protein B2 gave an Enzyme Activity Endpoint Assay: Fab′2 of 0 ng/µL, an Enzyme Activity Endpoint Assay: Fc of 174 ng/µL, an Enzyme Activity Endpoint Assay: IgG of 594 ng/µL and an Enzyme Activity Endpoint Assay: scIgG of 798 ng/µL.

The protein B3 showed an Enzyme Activity Endpoint Assay: Fab′2 of 1210 ng/µL, an Enzyme Activity Endpoint Assay: Fc of 489 ng/µL, an Enzyme Activity Endpoint Assay: IgG of 0 ng/µL and an Enzyme Activity Endpoint Assay: scIgG of 0 ng/µL.

On to B4, for which the Enzyme Activity Endpoint Assay: Fab′2 was 957 ng/µL, the Enzyme Activity Endpoint Assay: Fc was 385 ng/µL, the Enzyme Activity Endpoint Assay: IgG is 115 ng/µL and the Enzyme Activity Endpoint Assay: scIgG is 66 ng/µL.

For B5, the Enzyme Activity Endpoint Assay: Fab′2 was 307 ng/µL, the Enzyme Activity Endpoint Assay: Fc was 283 ng/µL, the Enzyme Activity Endpoint Assay: IgG came to 66 ng/µL and the Enzyme Activity Endpoint Assay: scIgG was 296 ng/µL.

For the protein B6, the Enzyme Activity Endpoint Assay: Fab′2 is 976 ng/µL, the Enzyme Activity Endpoint Assay: Fc was 419 ng/µL, the Enzyme Activity Endpoint Assay: IgG turned out to be 0 ng/µL and the Enzyme Activity Endpoint Assay: scIgG was 0 ng/µL.

B7 returned an Enzyme Activity Endpoint Assay: Fab′2 of 1120 ng/µL, an Enzyme Activity Endpoint Assay: Fc of 453 ng/µL, an Enzyme Activity Endpoint Assay: IgG of 43 ng/µL and an Enzyme Activity Endpoint Assay: scIgG of 0 ng/µL.

In turn, B8 returned an Enzyme Activity Endpoint Assay: Fab′2 of 884 ng/µL, an Enzyme Activity Endpoint Assay: Fc of 372 ng/µL, an Enzyme Activity Endpoint Assay: IgG of 31 ng/µL and an Enzyme Activity Endpoint Assay: scIgG of 0 ng/µL.

In turn, B9 showed an Enzyme Activity Endpoint Assay: Fab′2 of 769 ng/µL, an Enzyme Activity Endpoint Assay: Fc of 260 ng/µL, an Enzyme Activity Endpoint Assay: IgG of 140 ng/µL and an Enzyme Activity Endpoint Assay: scIgG of 331 ng/µL.
